In patent US20180155451A1 (published 2018):

B1: GpH7-A5/GpH7-B3 variant P331_07I/GpL16-k0 (antibody, human IgG1, kappa)
heavy 1: not shown
heavy 2: not shown
light: DIVMTQSPLSLPVTPGEPASISCQASESLVHSNRNTYLHWYLQKPGQSPQLLIYKVSNRFSGVPDRFSGSGSGTDFTLKISRVEAEDVGVYYCSQNTHVPPTFGQGTKVEIERTVAAPSVFIFPPSDEQLKSGTASVVCLLNNFYPREAKVQWKVDNALQSGNSQESVTEQDSKDSTYSLSSTLTLSKADYEKHKVYACEVTHQGLSSPVTKSFNRGEC
notes: Heterodimerized anti-glypican-3 IgG1; P331I (EU) only in the GpH7-B3 chain; also called He Ab
B2: GpH7-A5/GpH7-B3 variant P331_14T/GpL16-k0 (antibody, human IgG1, kappa)
heavy 1: not shown
heavy 2: not shown
light: DIVMTQSPLSLPVTPGEPASISCQASESLVHSNRNTYLHWYLQKPGQSPQLLIYKVSNRFSGVPDRFSGSGSGTDFTLKISRVEAEDVGVYYCSQNTHVPPTFGQGTKVEIERTVAAPSVFIFPPSDEQLKSGTASVVCLLNNFYPREAKVQWKVDNALQSGNSQESVTEQDSKDSTYSLSSTLTLSKADYEKHKVYACEVTHQGLSSPVTKSFNRGEC
notes: Heterodimerized anti-glypican-3 IgG1; P331T (EU) only in the GpH7-B3 chain; also called He Ab
B3: GpH7-A5/GpH7-B3 variant P331_11K/GpL16-k0 (antibody, human IgG1, kappa)
heavy 1: not shown
heavy 2: not shown
light: DIVMTQSPLSLPVTPGEPASISCQASESLVHSNRNTYLHWYLQKPGQSPQLLIYKVSNRFSGVPDRFSGSGSGTDFTLKISRVEAEDVGVYYCSQNTHVPPTFGQGTKVEIERTVAAPSVFIFPPSDEQLKSGTASVVCLLNNFYPREAKVQWKVDNALQSGNSQESVTEQDSKDSTYSLSSTLTLSKADYEKHKVYACEVTHQGLSSPVTKSFNRGEC
notes: Heterodimerized anti-glypican-3 IgG1; P331K (EU) only in the GpH7-B3 chain; also called He Ab
B4: GpH7-A5/GpH7-B3 variant P331_20W/GpL16-k0 (antibody, human IgG1, kappa)
heavy 1: not shown
heavy 2: not shown
light: DIVMTQSPLSLPVTPGEPASISCQASESLVHSNRNTYLHWYLQKPGQSPQLLIYKVSNRFSGVPDRFSGSGSGTDFTLKISRVEAEDVGVYYCSQNTHVPPTFGQGTKVEIERTVAAPSVFIFPPSDEQLKSGTASVVCLLNNFYPREAKVQWKVDNALQSGNSQESVTEQDSKDSTYSLSSTLTLSKADYEKHKVYACEVTHQGLSSPVTKSFNRGEC
notes: Heterodimerized anti-glypican-3 IgG1; P331W (EU) only in the GpH7-B3 chain; also called He Ab
B5: GpH7-A5/GpH7-B3 variant P331_18N/GpL16-k0 (antibody, human IgG1, kappa)
heavy 1: not shown
heavy 2: not shown
light: DIVMTQSPLSLPVTPGEPASISCQASESLVHSNRNTYLHWYLQKPGQSPQLLIYKVSNRFSGVPDRFSGSGSGTDFTLKISRVEAEDVGVYYCSQNTHVPPTFGQGTKVEIERTVAAPSVFIFPPSDEQLKSGTASVVCLLNNFYPREAKVQWKVDNALQSGNSQESVTEQDSKDSTYSLSSTLTLSKADYEKHKVYACEVTHQGLSSPVTKSFNRGEC
notes: Heterodimerized anti-glypican-3 IgG1; P331N (EU) only in the GpH7-B3 chain; also called He Ab
B6: GpH7-A5/GpH7-B3 variant A327_10E/GpL16-k0 (antibody, human IgG1, kappa)
heavy 1: not shown
heavy 2: not shown
light: DIVMTQSPLSLPVTPGEPASISCQASESLVHSNRNTYLHWYLQKPGQSPQLLIYKVSNRFSGVPDRFSGSGSGTDFTLKISRVEAEDVGVYYCSQNTHVPPTFGQGTKVEIERTVAAPSVFIFPPSDEQLKSGTASVVCLLNNFYPREAKVQWKVDNALQSGNSQESVTEQDSKDSTYSLSSTLTLSKADYEKHKVYACEVTHQGLSSPVTKSFNRGEC
notes: heterodimerized IgG1; alteration in the GpH7-B3 H chain only; also called He Ab
B7: GpH7-A5/GpH7-B3 variant L328_15Y/GpL16-k0 (antibody, human IgG1, kappa)
heavy 1: not shown
heavy 2: not shown
light: DIVMTQSPLSLPVTPGEPASISCQASESLVHSNRNTYLHWYLQKPGQSPQLLIYKVSNRFSGVPDRFSGSGSGTDFTLKISRVEAEDVGVYYCSQNTHVPPTFGQGTKVEIERTVAAPSVFIFPPSDEQLKSGTASVVCLLNNFYPREAKVQWKVDNALQSGNSQESVTEQDSKDSTYSLSSTLTLSKADYEKHKVYACEVTHQGLSSPVTKSFNRGEC
notes: Heterodimerized anti-glypican-3 IgG1; L328Y (EU) only in the GpH7-B3 chain; also called He Ab
B8: GpH7-A5/GpH7-B3 variant P331_04F/GpL16-k0 (antibody, human IgG1, kappa)
heavy 1: not shown
heavy 2: not shown
light: DIVMTQSPLSLPVTPGEPASISCQASESLVHSNRNTYLHWYLQKPGQSPQLLIYKVSNRFSGVPDRFSGSGSGTDFTLKISRVEAEDVGVYYCSQNTHVPPTFGQGTKVEIERTVAAPSVFIFPPSDEQLKSGTASVVCLLNNFYPREAKVQWKVDNALQSGNSQESVTEQDSKDSTYSLSSTLTLSKADYEKHKVYACEVTHQGLSSPVTKSFNRGEC
notes: Heterodimerized anti-glypican-3 IgG1; P331F (EU) only in the GpH7-B3 chain; also called He Ab

Key:
[1] = target: T1, FcγRIIIa extracellular domain with C-terminal His tag (human, UniProt P08637 17-208); experiment: SPR (Biacore), antibody captured on antigen peptide chip, FcγR as analyte
T1 construct: extracellular domain; also called FcgRIIIa; 3a; not shown: His tag at the C terminus
T1 sequence (P08637 17-208): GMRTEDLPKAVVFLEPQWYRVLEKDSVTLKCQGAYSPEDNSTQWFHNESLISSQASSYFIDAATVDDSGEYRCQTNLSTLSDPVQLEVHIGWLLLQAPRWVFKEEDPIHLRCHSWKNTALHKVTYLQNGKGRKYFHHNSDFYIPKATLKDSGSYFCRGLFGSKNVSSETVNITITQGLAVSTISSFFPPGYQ
Procedure: (§1) Analysis of interaction between objective antibody and the FcγR was carried out using Biacore T100 (GE Healthcare). HBS-EP+ (GE Healthcare) was used as the running buffer, and the measurement temperature was set to 25° C. Chips produced by immobilizing the antigen peptide by the amine coupling method to a Series S Sencor Chip CM5 (GE Healthcare), or alternatively, chips produced by allowing preliminarily biotinylated antigen peptides to interact with and immobilize onto a Series S Sensor Chip SA (certified) (GE Healthcare) were used. Antibodies of interest were captured onto an antigen peptide-immobilized chip, and allowed to interact to each FcγR diluted with running buffer. To regenerate and repeatedly use the chip, the antibodies captured on the chip were washed off by reacting 10 mM glycine-HCl, pH 1.5.
(§2) The FcγR-binding activity of each antibody was assessed primarily using as an indicator the FcγR-binding activity and dissociation constant for FcγR.

[2] = target: T2, FcγRIIb extracellular domain with C-terminal His tag (human, UniProt P31994 43-217); experiment: as above
T2 construct: extracellular domain; Soluble receptor expressed in FreeStyle293 cells, used as analyte in Biacore; also called FcgRIIb; 2b; not shown: His tag at the C terminus
T2 sequence (looked up): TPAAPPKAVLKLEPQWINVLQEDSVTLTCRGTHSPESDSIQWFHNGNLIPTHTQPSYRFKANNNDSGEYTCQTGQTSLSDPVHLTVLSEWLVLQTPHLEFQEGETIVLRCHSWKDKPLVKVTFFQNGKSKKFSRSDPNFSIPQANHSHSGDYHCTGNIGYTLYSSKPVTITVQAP
Procedure: as §1, §2

[3] = target: T1, FcγRIIIa extracellular domain with …; experiment: SPR; He/Con_3a divided by He/Con_2b (FcγRIIIa over FcγRIIb)
Procedure: as §1, §2

[4] = target: T3, FcγRIa (human, UniProt P12314 16-292); experiment: SPR (Biacore); He/Con_1a (FcγRIa) divided by He/Con_2b (FcγRIIb)
T3 construct: extracellular domain; also called FcgRI; 1a; not shown: His tag at the C terminus
T3 sequence (P12314 16-292): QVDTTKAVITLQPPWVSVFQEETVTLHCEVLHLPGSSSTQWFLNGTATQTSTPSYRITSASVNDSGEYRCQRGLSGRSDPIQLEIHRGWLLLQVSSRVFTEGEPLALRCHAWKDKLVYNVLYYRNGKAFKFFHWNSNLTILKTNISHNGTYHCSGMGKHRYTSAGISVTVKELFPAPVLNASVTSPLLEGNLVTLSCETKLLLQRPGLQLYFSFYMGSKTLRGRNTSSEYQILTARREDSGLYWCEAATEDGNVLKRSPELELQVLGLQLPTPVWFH

[5] = target: T4, FcγRIIb (human, UniProt P31994 43-217); experiment: SPR (Biacore), antibody captured, FcγR as analyte; binding as % of GpH7-A5/GpH7-B3/GpL16-k0
T4 construct: extracellular domain; also called FcgRIIb; 2b; not shown: His tag at the C terminus
T4 sequence (looked up): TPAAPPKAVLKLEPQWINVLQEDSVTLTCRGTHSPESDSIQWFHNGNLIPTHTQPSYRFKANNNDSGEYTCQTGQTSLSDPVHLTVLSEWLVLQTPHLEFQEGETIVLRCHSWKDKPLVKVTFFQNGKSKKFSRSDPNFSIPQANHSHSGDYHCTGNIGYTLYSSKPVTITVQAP

[6] = target: T3, FcγRIa; experiment: as above

He/Con_3a [1]	He/Con_2b [2]	He_3a/2b (IIIa/IIb) [3]	Ia/IIb He_1a/2b [4]	He/Con_2b [5]	He/Con_1a [6]	Binder
66 relative binding (GpH7-A5/GpH7-B3/GpL16-k0 = 100)	114 relative binding (GpH7-A5/GpH7-B3/GpL16-k0 = 100)	0.58 ratio				B1
74.1 relative binding (GpH7-A5/GpH7-B3/GpL16-k0 = 100)	99.8 relative binding (GpH7-A5/GpH7-B3/GpL16-k0 = 100)	0.74 ratio				B2
67.5 relative binding (GpH7-A5/GpH7-B3/GpL16-k0 = 100)	84.7 relative binding (GpH7-A5/GpH7-B3/GpL16-k0 = 100)	0.8 ratio				B3
78.6 relative binding (GpH7-A5/GpH7-B3/GpL16-k0 = 100)	111 relative binding (GpH7-A5/GpH7-B3/GpL16-k0 = 100)	0.71 ratio				B4
73.4 relative binding (GpH7-A5/GpH7-B3/GpL16-k0 = 100)	99.2 relative binding (GpH7-A5/GpH7-B3/GpL16-k0 = 100)	0.74 ratio				B5
			0.74 ratio	140 % of control	103 % of control	B6
68.3 relative binding (GpH7-A5/GpH7-B3/GpL16-k0 = 100)	193 relative binding (GpH7-A5/GpH7-B3/GpL16-k0 = 100)	0.35 ratio				B7
77.3 relative binding (GpH7-A5/GpH7-B3/GpL16-k0 = 100)	110 relative binding (GpH7-A5/GpH7-B3/GpL16-k0 = 100)	0.7 ratio				B8
